# Measured values as given in publication PMC11098746 (2024).
# No end group written: not given here.
# T1: ADP156
# T1 chain: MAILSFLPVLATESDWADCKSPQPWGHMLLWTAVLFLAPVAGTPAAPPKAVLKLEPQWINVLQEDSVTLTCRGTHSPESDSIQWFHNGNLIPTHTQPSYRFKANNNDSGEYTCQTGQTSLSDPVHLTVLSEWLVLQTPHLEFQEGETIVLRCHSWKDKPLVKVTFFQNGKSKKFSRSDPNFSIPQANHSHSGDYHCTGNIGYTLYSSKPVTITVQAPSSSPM
# T2: ADP341
# T2 chain: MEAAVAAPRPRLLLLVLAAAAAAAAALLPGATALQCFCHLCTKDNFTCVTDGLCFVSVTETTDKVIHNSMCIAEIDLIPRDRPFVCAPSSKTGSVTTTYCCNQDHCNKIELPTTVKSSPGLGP
# T3: ADP098
# T3 chain: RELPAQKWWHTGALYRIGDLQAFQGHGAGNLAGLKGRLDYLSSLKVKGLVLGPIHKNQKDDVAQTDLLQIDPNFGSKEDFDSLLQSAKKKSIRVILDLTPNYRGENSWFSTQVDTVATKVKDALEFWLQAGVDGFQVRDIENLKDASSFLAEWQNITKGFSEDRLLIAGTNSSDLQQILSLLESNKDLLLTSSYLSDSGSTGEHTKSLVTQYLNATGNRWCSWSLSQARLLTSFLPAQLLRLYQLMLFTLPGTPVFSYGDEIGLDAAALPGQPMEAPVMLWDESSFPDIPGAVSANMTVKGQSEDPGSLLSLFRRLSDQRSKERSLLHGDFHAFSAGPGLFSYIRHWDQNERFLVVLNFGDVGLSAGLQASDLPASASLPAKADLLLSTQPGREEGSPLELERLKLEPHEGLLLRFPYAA
# T4: ADP389
# T4 chain: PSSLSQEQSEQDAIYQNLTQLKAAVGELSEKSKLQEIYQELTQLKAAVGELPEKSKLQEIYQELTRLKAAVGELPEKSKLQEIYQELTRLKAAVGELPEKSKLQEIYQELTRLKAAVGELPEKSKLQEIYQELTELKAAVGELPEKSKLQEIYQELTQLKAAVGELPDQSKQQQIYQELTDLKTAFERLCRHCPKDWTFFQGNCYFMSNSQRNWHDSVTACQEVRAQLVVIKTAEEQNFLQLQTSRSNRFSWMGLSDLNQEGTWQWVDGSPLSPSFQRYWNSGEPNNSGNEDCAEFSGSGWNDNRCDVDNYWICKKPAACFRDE
# T5: ADP267
# T5 chain: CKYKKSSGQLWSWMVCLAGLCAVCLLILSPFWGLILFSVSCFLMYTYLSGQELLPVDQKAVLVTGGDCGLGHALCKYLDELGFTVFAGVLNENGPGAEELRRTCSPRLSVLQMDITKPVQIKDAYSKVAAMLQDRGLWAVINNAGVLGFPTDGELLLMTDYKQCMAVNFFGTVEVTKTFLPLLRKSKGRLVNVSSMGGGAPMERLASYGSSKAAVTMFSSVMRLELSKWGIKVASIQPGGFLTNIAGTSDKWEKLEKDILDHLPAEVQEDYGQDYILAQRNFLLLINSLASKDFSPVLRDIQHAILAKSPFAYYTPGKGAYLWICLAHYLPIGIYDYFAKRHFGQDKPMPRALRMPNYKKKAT
# T6: ADP298
# T6 chain: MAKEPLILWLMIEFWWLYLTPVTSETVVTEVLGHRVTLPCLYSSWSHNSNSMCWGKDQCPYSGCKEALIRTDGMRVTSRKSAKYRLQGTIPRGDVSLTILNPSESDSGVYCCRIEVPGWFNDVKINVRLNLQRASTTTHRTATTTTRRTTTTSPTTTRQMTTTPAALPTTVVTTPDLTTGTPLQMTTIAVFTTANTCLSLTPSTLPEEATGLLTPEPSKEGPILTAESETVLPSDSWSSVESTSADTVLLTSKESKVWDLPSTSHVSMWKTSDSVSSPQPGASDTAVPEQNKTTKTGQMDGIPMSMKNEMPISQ
# B1: ADP183 (protein)
# chain: AEEHEITHKTYFDITIDDKPLGRIVFGLYGKVAPKTVENFVSICKGTVVDGKMLHYTNSIFHRIIPNFMAQGGDITNFNGAGGLSIYGKKFEDENFKVNHAKRGLLSMANAGKNTNGAQFFILFIPTPWLDGRHVVFGEVVEGLDKLVHIEAVGTDSGEPLKRVLVKESGELPL
# modifications: bait human Fc-tagged dimer; N-glycosylation sequons mutated in Plasmodium baits
# B2: ADP256 (peptide)
# chain: MNEAKEEKTNMRNNHLSRVTIEILPSDEDNDIFDINDALLDELIGINNI
# modifications: also: human Fc-tagged dimer
# B3: ADP169 (protein)
# chain: LIRNSNTPQAFLIPELNNNEKNEFNNNEKNEMNNNLNNEFNNNEENCDIQKIAEEMMENLLNENDMYTNIMLSLQNRLSDDYLCSEPKYENICIHEKDKISLSFPCSNPKYEKLIHKFTFKKLCNSKAAFNNALLKSFIEEDEEQNTFSLMLKQFKILLTCVDDELKDIYKESIDLLVDLKTSITELTQKLWSGKMVNVLKKREFLITGILCELRNGNKAPLISKSLEFENLGILKMNNEELLNEAYNAFSDYYYFFPYFIQKLLEKGGMIERLIKIHENLAKYRTKDMVNKINAQSKGEVLNNEDILNKLNAYKHYTKHGATSFIQSREVKIVNQNVNNDDTTKNQQQNVNNNEKLNNNNNNNNNQQVNNNNNNNNQQVNNNNNNNNNQVNNNNNNNNNQVNNNNYNNNNQVNNNNNNNQQVNNNNNYNNQLNNNNFNNNLQVNKNDKHVPKNNHATATHTNNILYNPLYSINPEKPKDIIKLLKDLIKYLHIVKFENNEPTTNIDEEGIRKLLENSFFDLNDDILIVRLLLKPQTVILTVIQSFMLMTPSPSRDAKAYCKKALINDQLVPTNDANILSEENELVNNFATKYVLIYEKMKLQELKEMEESKLKMKYSKTNLAALQVTNPQNNKDKNDASNKNNNPNNAATPLIAVVTDLSGEKTEDIINNNVDIATLSVGVQNTFQGP
# modifications: bait human Fc-tagged dimer; N-glycosylation sequons mutated in Plasmodium baits
# B4: ADP398 (protein)
# chain: SNHIKSVNRCFIPFISEYIYKQKNRKNNIAYDSSNSHYNDKIIPCGNYNKQLKYKINFCRNLYFNNKNEYNRICSRNKLNFHNIQTDNTIYKPKKKYYEVGKVREKIKMYTLFKDDKINTLKCNEEESVTSETINKHDSSVKVKGRRKKNIASNENIMNPNNKAVSSINTNLADSSNNKNDNSLNSKKNDNTLNSKKNDNTLNSKKNDNTLNSKNNNNALNSKNNNNALNSKKSNNAYNDKHIDHIIPEGKNKINNNIDVKHNINNKLNEINEEPYEDTHNKEENSANKNDNDEKRKEENNNIARRYIKNDQMSYNNINTNSNEYDKNAATLDETYIGKTFEGYVYSVNKNAACIKLKNINKYGLLFKNKANLGDDIEDMNDFFEKDQPVHVKILGINTKKNIFYLGNIIKYNENIKLSKGEYSKGLITKVCDSYCFIKVLKNGATGYLHKSKLFCMNDKEKKNNDNQNYDNPNNDNPNYDNQNYDNQNYNNPNYDHPNYDNQNYDNQNYNNPNNDYSTSQLYNSDNLQMDFIYKLQFTKIFNIWDIIDVEILGTPQNDYKSNYILTIPRGSKTFKKILNYLNVLKENEDINNIQYKGDYIYSIDNNKNDNIIDSDINNHHINNKKKKKNLYDIQNNMNHAPFNKFHTEDEYLFNDHVQENVHTFYEKNKKYKITYDKENNHKMNKAYYLKKNKELPFNNKFKKIIKNIYDLPNTISLSMLSKTIKIPLASIKKYFIIHENKEYNSAYKINSEQIKRICQHFKIDCNVEQRDDNVVTKVNGATKDCQEKVFKNVAQDRLKEGEQERVIKVEAKIKNDEMVMQEQKDTKEEKHMDVQFIEEKDINVQHINVQDMDVQDMDVQDINVQDMDVQNINVQDINIQDMDVQNINNAITLNKATSCQTDESRDAPGGDQNEALDEKDSMEKSKEKKKKKGKSRKKNKDTNLALKSDSIQKSKTTLDDKKRNVVVTFIGHINHGKTSLFDYICKTNEQKKEYGLITQNIRAFKATVRNNFAFTLVDTPGHEAFMPMRSRGVKISDLSILVISGDEGIQEQTVECIKLIKEFNIKIIIAITKVDIPNVDVDRIINDLLYHDITTELNGGEIQVVECSIYKEESIDKLLDAIYLESEFLNLQTNPDKKHEQAQGVVLDSYIDKNGIVSINLLQNGVLNINDHFYTGSSYGKVKILKDHLNKNIKSAYPSDPIKIIGYNKNSVPVAGDKFYVVENEALAKEIAEHNKNKMLTMEINNFAYDQTNMNRYKDFIISRENKIGGSSGILGENNLKNDIDGNMARDDNMARDDNMASDDNMARDGNRANNDNIASDDNMANDYDKIKETKMYTNNKAFQKDDFLKIHLNNANENVINMDPSTHIGKNEIKTIYSNYIIKCDKQGSIEVLKNCMLKLQKEDSICKIKNKIIYADIGNVASSDIKYATSFNAAIIAFGVKLSNDIKGSKNSKGSKNHNNYPIIYSNVLYELIENVEKEMEKKLSKKPMGELKGTAQILKVFNIAKLGKVAGCIVKKGTISINSNIRILRNDKVIYMGKIISIKIVKEEKTQVTEADECGIGFDNFLDFEPNDIIEAYEN
# modifications: bait human Fc-tagged dimer; N-glycosylation sequons mutated in Plasmodium baits
# B5: ADP236 (protein)
# chain: EFVKGSYESKGYPLIHLMNNNEYTGSANNFIKNNLINLLYIYKDVKFDEEKTLGIDSFLDIEDDTKIERLIKEKMLYINKYINSRQMIKYSGFIYLYEIIEKKNFYFLLHFLMTNNNNGLIIILPEDMYINVDEYYRINKINKLNDQNKKNKVVSQDLLEKRIMFVQSLILNMKLQQSIYFIKNNKDIEKIYENYQSKFAYFDLTRNVAISPISKIQNVYKMNSKSLYYFLNKNNNIHINTIFNKQQDNQAFLLTKQKTIIICADFNVFNIFSDLPSNTAFTNSNLITIQNLIKLFYDVYNKEQVNYNILFFFTNYYYGIQDFLNSINVIFKENIEFVICLDNLNNADFYIYESNKAQPQNVQAFYRILNNIVKGSIKKNVQMVNEKIKIHSKHLPSLHEYFVLNKINSFSLSSSKKNNNMIFLNKFPMLQPKLNIQNVKNNIAIIFKSLYLYMTQKKTDQKENTQQEQSIEKNEKEKSMLTYINKNMASNDDMNTIDYNLNKYNKFFIYKEDTLKLFNYFKTIINSNIADTNFLIKDYKLTTDKKQKFFYQKYAHVTFSMAISYVFH
# modifications: bait human Fc-tagged dimer; N-glycosylation sequons mutated in Plasmodium baits
# B6: ADP397 (protein)
# chain: YLSSENQKKTIATVHNNARTNTLKKNNANNNNANDIFGLSPSEVPNLIDDEEEYEILEGVKNNADLTRSTNIDHPSPSSTMIDLDNIITEISKLKKKKLKKEMNNKLEQQTNQNNNAIHHNNENEINTFTQNIKTNSNELKNQDSSNSLISTNSNTMDELLLYSTNSEDNLDISFGELQLYENSDEDTSDYEYVNEDYSVNHIFSNDAEESFNILEDVENIALSSSNRYQYSPIGPYKKKHTKVFENFKMTRNYDEFLKLYNLKDSSDNQEEYYELLAGEPFKLNSYYYRDVKYENVKKYIFKEIYDNIQNIATENKIIVSKKEELFFYFIKSLLKNNFICLSYEEEENLLSESKLLLEAMISKKIQ
# modifications: bait human Fc-tagged dimer; N-glycosylation sequons mutated in Plasmodium baits
# Tests used:
# Assay in all cases: AVEXIS screen signal:noise (double-corrected)
# [1] = target: T1, ADP156
# [2] = target: ADP369
# [3] = target: T2, ADP341
# [4] = target: T3, ADP098
# [5] = target: ADP376
# [6] = target: T4, ADP389
# [7] = target: T5, ADP267
# [8] = target: T6, ADP298
binder,measurement,setting,value
B1,binding score,[1],5.67
same,binding score,[2],6.98
B2,binding score,[3],32.7
B3,binding score,[4],11.2
B4,binding score,[5],10.1
B5,binding score,[6],5.5
B6,binding score,[7],21.9
same,binding score,[8],7.9
